Test results: the supplement of paper PMC10126150
± gives the standard deviation of the averaged measurements.

Tested on: ATP
Assay: switch fluorescence ratio, 500 uM ATP over buffer (Cy3 cluster intensity, sum of 5 cycles each) (fold (ratio)); higher = stronger signal-on switching upon ATP binding; sequences stand for … in TCGTCGGCAGCGTCAGATGTGTATAAGAGACAGTTTTTTTTTTTTTTTTTTTTTTTTT…TC
Settings: aptamer strand: ATP DNA aptamer (quencher-CACCTGGGGGAGTATTGCGGAGGAAGG + anchor), 100 nM annealed; ATP concentration: 500 uM
Summary of the method: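 For every switch-domain sequence, the fluorescence ratio is the mean of per-cluster values, each being summed target-cycle Cy3 intensity over summed buffer-cycle Cy3 intensity. Clusters outside 100-1000 RFU were excluded. On a modified Illumina MiSeq flow-cell, the Cy3-labelled switching-strand clusters were annealed to 100 nM quencher-labelled ATP aptamer, imaged in selection buffer and then after 15 min with 500 uM ATP at 22 °C. Five such cycles were run, with NaOH stripping and re-annealing between them.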
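Note: ATP exposure 15 min at 22 °C before imaging.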

GAACTTGGG
switch fluorescence ratio: 1.01 ± 0.045

GAACTTGTCT
switch fluorescence ratio: 1.02 ± 0.036

GAACTTTCTG
switch fluorescence ratio: 1.006 ± 0.0063

GAAGAACTGG
switch fluorescence ratio: 0.991 ± 0.054

GAAGAGAGGC
switch fluorescence ratio: 0.96 ± 0.024

GAAGATGGTG
switch fluorescence ratio: 0.963 ± 0.037

GAAGCACCGG
switch fluorescence ratio: 1.08 ± 0.026

GAAGCAGATG
switch fluorescence ratio: 1.16 ± 0.033

GAAGCCATAT
switch fluorescence ratio: 1.48 ± 0.068

GAAGCCGTTT
switch fluorescence ratio: 1.01 ± 0.039

GAAGCGGGTG
switch fluorescence ratio: 1.1 ± 0.1

GAAGCGTGTC
switch fluorescence ratio: 1.02 ± 0.017

GAAGCTGTAT
switch fluorescence ratio: 1.1 ± 0.035

GAAGGAACGT
switch fluorescence ratio: 0.981 ± 0.043

GAAGGACAGC
switch fluorescence ratio: 1.05 ± 0.034

GAAGGAGCAA
switch fluorescence ratio: 2.54 ± 1.2

GAAGGAGGGA
switch fluorescence ratio: 0.987 ± 0.018

GAAGGAGGGT
switch fluorescence ratio: 0.9731 ± 0.0064

GAAGGCAGCG
switch fluorescence ratio: 1.03 ± 0.017

GAAGGCGGTT
switch fluorescence ratio: 1.029 ± 0.0037

GAAGGGAGGA
switch fluorescence ratio: 1.03 ± 0.077

GAAGGGATTA
switch fluorescence ratio: 1.01 ± 0.04

GAAGGGCCTG
switch fluorescence ratio: 1.05 ± 0.056

GAAGGGGATA
switch fluorescence ratio: 1.01 ± 0.036

GAAGGGGCAG
switch fluorescence ratio: 0.97 ± 0.014

GAAGGGGCTG
switch fluorescence ratio: 1.01 ± 0.14

GAAGGGGTAC
switch fluorescence ratio: 1.16 ± 0.15

GAAGGGGTCC
switch fluorescence ratio: 1 ± 0.042

GAAGGGTGGG
switch fluorescence ratio: 1 ± 0.022

GAAGGTCGGC
switch fluorescence ratio: 0.994 ± 0.036

GAAGGTTAAC
switch fluorescence ratio: 1.03 ± 0.1

GAAGGTTATT
switch fluorescence ratio: 0.9939 ± 0.0047

GAAGTAAGTC
switch fluorescence ratio: 1.104 ± 0.0051

GAAGTAGGTC
switch fluorescence ratio: 1.02 ± 0.041

GAAGTATCGG
switch fluorescence ratio: 0.979 ± 0.024

GAAGTCTGTG
switch fluorescence ratio: 1 ± 0.047

GAAGTGAGGG
switch fluorescence ratio: 0.995 ± 0.017

GAAGTGATAT
switch fluorescence ratio: 1.206 ± 0.0013

GAAGTGCTTT
switch fluorescence ratio: 0.995 ± 0.041

GAAGTGTGGG
switch fluorescence ratio: 0.962 ± 0.03

GAAGTGTGTG
switch fluorescence ratio: 1 ± 0.021

GAAGTTACGG
switch fluorescence ratio: 1.11 ± 0.015

GAAGTTCCCA
switch fluorescence ratio: 0.979 ± 0.011

GAAGTTCGTG
switch fluorescence ratio: 1.01 ± 0.055

GAAGTTGGTG
switch fluorescence ratio: 0.987 ± 0.026

GAAGTTTCTA
switch fluorescence ratio: 0.999 ± 0.0069

GAAGTTTTTT
switch fluorescence ratio: 1.002 ± 0.0036

GAATAAGCAA
switch fluorescence ratio: 1.56 ± 0.025

GAATAATGGG
switch fluorescence ratio: 1.01 ± 0.033

GAATAATTGG
switch fluorescence ratio: 0.996 ± 0.015

GAATAGTTTT
switch fluorescence ratio: 1.01 ± 0.02

GAATATGAGA
switch fluorescence ratio: 0.9629 ± 0.0051

GAATATTACC
switch fluorescence ratio: 1.06 ± 0.014

GAATCAAGCG
switch fluorescence ratio: 0.986 ± 0.059

GAATCAGCGG
switch fluorescence ratio: 0.989 ± 0.018

GAATCAGGGG
switch fluorescence ratio: 1.11 ± 0.012

GAATCAGTGG
switch fluorescence ratio: 0.993 ± 0.05

GAATCCGGGA
switch fluorescence ratio: 1.05 ± 0.087

GAATCGTTTC
switch fluorescence ratio: 0.996 ± 0.053

GAATGGCACG
switch fluorescence ratio: 1.003 ± 0.008

GAATGGCGG
switch fluorescence ratio: 0.998 ± 0.041

GAATGGGACA
switch fluorescence ratio: 1.13 ± 0.26

GAATGGGGA
switch fluorescence ratio: 0.986 ± 0.021

GAATGGGTCC
switch fluorescence ratio: 1.01 ± 0.029

GAATGGTTGT
switch fluorescence ratio: 1.02 ± 0.023

GAATGTAGGT
switch fluorescence ratio: 0.993 ± 0.037

GAATGTGACG
switch fluorescence ratio: 1.02 ± 0.013

GAATGTGATA
switch fluorescence ratio: 0.984 ± 0.018

GAATGTTATT
switch fluorescence ratio: 1.001 ± 0.0065

GAATGTTTGA
switch fluorescence ratio: 0.984 ± 0.044

GAATGTTTGG
switch fluorescence ratio: 0.991 ± 0.011

GAATTAAAGT
switch fluorescence ratio: 0.9823 ± 0.0041

GAATTAGGTA
switch fluorescence ratio: 0.962 ± 0.01

GAATTATCAT
switch fluorescence ratio: 0.968 ± 0.015

GAATTGAAAA
switch fluorescence ratio: 1.02 ± 0.026

GAATTGCGGG
switch fluorescence ratio: 1.02 ± 0.087

GAATTTAAAA
switch fluorescence ratio: 0.9747 ± 0.0071

GAATTTAGCG
switch fluorescence ratio: 1.01 ± 0.015

GAATTTGCGC
switch fluorescence ratio: 1.03 ± 0.084

GAATTTTATG
switch fluorescence ratio: 0.9549 ± 0.0062

GAATTTTGCG
switch fluorescence ratio: 0.999 ± 0.021

GAATTTTTTG
switch fluorescence ratio: 0.988 ± 0.012

GACAACATTT
switch fluorescence ratio: 0.9967 ± 0.004

GACAATAAGT
switch fluorescence ratio: 1.04 ± 0.012

GACAATGGTG
switch fluorescence ratio: 1.021 ± 0.0049

GACAATGTAC
switch fluorescence ratio: 4.02 ± 0.16

GACACGGAAA
switch fluorescence ratio: 1.23 ± 0.29

GACAGAGGGA
switch fluorescence ratio: 1.02 ± 0.031

GACAGCCGGT
switch fluorescence ratio: 1.01 ± 0.029

GACAGGAATT
switch fluorescence ratio: 1.029 ± 0.008

GACAGGGATT
switch fluorescence ratio: 1.1 ± 0.15

GACAGGTGCG
switch fluorescence ratio: 1.274 ± 0.012

GACAGTAGTC
switch fluorescence ratio: 1.001 ± 0.0049

GACAGTCGGG
switch fluorescence ratio: 1.01 ± 0.024

GACATAGGTT
switch fluorescence ratio: 1.034 ± 0.008

GACATAGTTT
switch fluorescence ratio: 1.021 ± 0.01

GACATCAGAG
switch fluorescence ratio: 1.02 ± 0.053

GACATGGACG
switch fluorescence ratio: 1.088 ± 0.0062

GACATGGGTT
switch fluorescence ratio: 0.983 ± 0.015

GACATTCCCT
switch fluorescence ratio: 1.07 ± 0.016

GACATTGGCT
switch fluorescence ratio: 0.948 ± 0.03

GACATTGTGT
switch fluorescence ratio: 0.98604 ± 0.00074

GACATTGTTA
switch fluorescence ratio: 1.01 ± 0.063

GACATTTGGA
switch fluorescence ratio: 1.017 ± 0.0066

GACATTTTTT
switch fluorescence ratio: 0.978 ± 0.036

GACCAAGGGT
switch fluorescence ratio: 0.978 ± 0.012

GACCACAT
switch fluorescence ratio: 1.05 ± 0.004

GACCACTTGA
switch fluorescence ratio: 1.01 ± 0.014

GACCATTGTT
switch fluorescence ratio: 1.01 ± 0.013

GACCCAAGGC
switch fluorescence ratio: 1.194 ± 0.01

GACCGATGGG
switch fluorescence ratio: 1.01 ± 0.013

GACCGATGTG
switch fluorescence ratio: 1.01 ± 0.013

GACCGCTGGT
switch fluorescence ratio: 0.996 ± 0.039

GACCGGGTTC
switch fluorescence ratio: 1.02 ± 0.033

GACCTATGGA
switch fluorescence ratio: 0.997 ± 0.0037

GACCTTAATT
switch fluorescence ratio: 1.01 ± 0.025

GACCTTGACG
switch fluorescence ratio: 1.02 ± 0.022

GACCTTGGTG
switch fluorescence ratio: 1.03 ± 0.083

GACCTTTCTG
switch fluorescence ratio: 0.997 ± 0.025

GACCTTTGAG
switch fluorescence ratio: 1.017 ± 0.0045

GACCTTTTT
switch fluorescence ratio: 1.02 ± 0.042

GACCTTTTTC
switch fluorescence ratio: 1.03 ± 0.068

GACGACGGGG
switch fluorescence ratio: 1.05 ± 0.028

GACGATGCCA
switch fluorescence ratio: 1.16 ± 0.035

GACGCAGGGT
switch fluorescence ratio: 1.34 ± 0.25

GACGCATATG
switch fluorescence ratio: 2.03 ± 0.098

GACGCCGGGT
switch fluorescence ratio: 1.03 ± 0.02

GACGCCGGTC
switch fluorescence ratio: 1.25 ± 0.27

GACGCGGAAC
switch fluorescence ratio: 5.48 ± 0.37

GACGGAACGG
switch fluorescence ratio: 1.04 ± 0.022

GACGGAAGCA
switch fluorescence ratio: 1.38 ± 0.11

GACGGCGTCG
switch fluorescence ratio: 0.974 ± 0.011

GACGGCTTGG
switch fluorescence ratio: 1.02 ± 0.025

GACGGGCGGC
switch fluorescence ratio: 0.984 ± 0.02

GACGGGCTGG
switch fluorescence ratio: 0.989 ± 0.024

GACGGGCTGT
switch fluorescence ratio: 0.985 ± 0.029

GACGGGGAAA
switch fluorescence ratio: 1.01 ± 0.028

GACGGGGCG
switch fluorescence ratio: 0.97 ± 0.057

GACGGTTGTG
switch fluorescence ratio: 1 ± 0.012

GACGTAGGTC
switch fluorescence ratio: 1 ± 0.029

GACGTAGTTT
switch fluorescence ratio: 1.014 ± 0.0021

GACGTGACAA
switch fluorescence ratio: 1.168 ± 0.0021

GACGTGACGA
switch fluorescence ratio: 1.15 ± 0.019

GACGTGGTTT
switch fluorescence ratio: 0.994 ± 0.046

GACGTTCGGC
switch fluorescence ratio: 0.991 ± 0.026

GACTAAGTGT
switch fluorescence ratio: 1 ± 0.022

GACTACTGTA
switch fluorescence ratio: 1.04 ± 0.051

GACTAGACGG
switch fluorescence ratio: 1.13 ± 0.041

GACTAGGTTT
switch fluorescence ratio: 1.04 ± 0.013

GACTATCGGA
switch fluorescence ratio: 1.03 ± 0.013

GACTATGAGA
switch fluorescence ratio: 0.9936 ± 0.0039

GACTATGGTT
switch fluorescence ratio: 0.986 ± 0.051

GACTATGTTT
switch fluorescence ratio: 1 ± 0.044

GACTCAAGTT
switch fluorescence ratio: 1.048 ± 0.0054

GACTCAATGG
switch fluorescence ratio: 1.14 ± 0.03

GACTCAGTTG
switch fluorescence ratio: 0.9947 ± 0.0084

GACTCGAGGC
switch fluorescence ratio: 1.05 ± 0.06
